# Data: the DeepSol protein solubility set
# Test: soluble on expression in E. coli; label from the status in PepcDB or PDB records
row,Sequence,soluble on expression in E. coli
1,MGSDKIHHHHHHEPTKLTPENYFNTPAEANSFLTGIYAILSQPTFYGGDYMYLVAGDDLSHYGGSGRGPASTGLICNNATTSDNAVTAFWYALYSGINRANMFLENIDKVNGFDAGVKEQYIAEARFLRAFYYFNLVECWGDVPFKTVSTQSVTNLNIPRTDKQEIYDFIISEMADAAETGLKSASDLAYKPGRISQSTAWGILARVYLFRAGEHYREGRNATQAEKKDYFERASFYAQKVMTAGHKLAANYWDPFIDMCSDKYNTTANESIWEAEFAGNNTSDTQAEGRIGNIIGLAGPDLSSKSDVTGAKDPGYGYAFIYSTPKLYNLYVNNGDTKRFNWSIAPFEYKEAGGKNTGVTHREFEQGKLAEVMSQYGQQRGTYQYADDTEKTTATKNFSRMCGKYRREYEADKKDKNYTSINFPILRYADVLLMIAEAENEANNGPTTLAYQCMKEVRERAGLNELPDMTQEEFRQTVKDERAMELCFEYTRRFDLIRWGEYVKNMRALVTEAQSGNNWTQGPTNVYTYFNISSTYNYFPIPDAEMSVNKDITQNNPGW,not soluble
2,GSGVDFYDVAFKVMLVGDSGVGKTCLLVRFKDGAFLAGTFISTVGIDFRNKVLDVDGVKVKLQMWDTAGQERFRSVTHAYYRDAHALLLLYDVTNKASFDNIQAWLTEIHEYAQHDVALMLLGNKVDSAHERVVKREDGEKLAKEYGLPFMETSAKTGLNVDLAFTAIAKELKRRSMKAP,soluble
3,MANPKLPGISESEQALLYAKLNEYNRGRASFKEAGVYLVVLPRPGKPNYSLWLYSPLPEKQSILYIHDLSPDINESLRIASTMFYYSRRCLILMDYNEKRMQSNGDDLIFFGKYRGHFLHEILKVDPAYLSWIAYKFTPKIPKQERFVKIAQAYHSVHLDVMLRKSKEVRRKSRYLGEVNEKLTDLKLKVMRVRLEDDPYKTRVYGTTPQFFVKQILTLNDASGNLVTMSIPSKTPSTVSCTLSGIEHEYRPGEIIYVASARVSRLFESYGSKYTRLSNVKLAIVNAWSSRL,not soluble
4,MSLYTFKELKRATKQDTVSLPKLKVALLGDTATQLLATAIKGEGILRNYNIELWEAEYNQVERQIMDPTSDYYQFEPDYTIIFHSTHKLLEKHSLVNSDLQNKLADDRLDFVRLLCEQGIGRVIYYNYPEIEDTIWGSYATKVQSSFTYQLTKLNYELMNISQAYPNFFICNLAGISAKYGRNFMFDSSVYVNTEIILSLDALPIISSRTIDIIAAIQGKFKKCLILDLDNTIWGGVVGDDGWENIQVGHGLGIGKAFTEFQEWVKKLKNRGIIIAVCSKNNEGKAKEPFERNPEMVLKLDDIAVFVANWENKADNIRTIQRTLNIGFDSMVFLDDNPFERNMVREHVPGVTVPELPEDPGDYLEYLYTLNLFETASFSEDDKDRTKQYQIEAKRVSLQQSFTNEAEFLKSLDMVSEVKGFDKFNTPRVAQLSQRSNQFNLRTVRYTEAEIAAIESDLHYATFSFTLADRFGDNGLICVIILEKQDTETLFINTWFMSCRVLKRGMENFTLNTLVDYARSNGFKRFIGEYLPSAKNQMVEEHYPHLGFSKMEGGDNAARYVLDVETYEEKECYITKKEGHHHHHH,soluble
5,MVKFLRDLVKIPGESAEEGNKIARAKAEMEKLGFDKIDIDPQGNLLGYMGSGEKLIAFDGHMDTVGIGEMSNWKFDPYDGYETETEIGGRGTSDQEGGIVSAIYGAKIMKDLGLLSEKYTALVTVTVQEEDCDGLCWQYIIKEDGIRPEFVVSTEPTDGGIYRGQRGRMEIKVDVKGVSCHGSAPERGDNAIYKMADILQDVRALNNNGDTESTAIRGLVRMLDPKYNPEWQEARFLGRGTVTVSQIFHSSPSRCAVADGCTVSLDRRMTAGETWESCLEEIRNLPAVKKYGDDVTVSMYNYDRPSYTDLTYEIECYFPTWVIPENHDVTKALMETHKNLYGETRKGSVETVEMREERPLLDKWTFSTNGVSIMGRNGIPCIGFGPGAEAQAHAPNEKTWKDDLVRCAAVYAALPTVYCG,not soluble
6,MVLNSMRLFYILSQRDASSKNFNSSIYSRRSSRNSGCPGALFRSGRAVPFERVVGQQYFLKAYAILHSLNICRVEAGYIFDRKKTKFQDFLRFGRAGMASGVGGGSEGGPDDVKNSYIRVNGEPEIVYQ,not soluble
7,MFDYTDFPEQRQSKIRLILSEEGKVVCTQLSRELNVSEHTIRRDLKELAQSGACKRVYGGAVSLPPEAIDFASRATIDAAQKDRIAQAVIPLIKPNGCVFFDTGTTNLAVAKQIPAGLKFTAVCNSPIIAAELMQHQDVEVIVLGGRIQKEVGGAIGIDTLRQLEKMYFDQCLLGGCAFDANEGLTVFEYDDAEFKKCLVTRSSEVIVALTANKISALTRYRVAECDEITTLVTDDEISPASQSVLKEKNLDVIIARLEHHHHHH,soluble
8,NSSDYRALFLNDVPMMDARAPVEFSKGAFPGVINLPLMNDIERQKVGTCYKQHGQDAAIQLGHQLVCGQVKDERVEAWVEFARANPNGYLYCFRGGLRSQTVQRWLKDAGVDYPRILGGYKAMRTFLLDTLHEAVTE,not soluble
9,MGSDKIHHHHHHMIKSISTGRTQQGYFSPVEKQMFGAALLADPDTSSPFSDVLSIAESGCSSSLLQQLTSVTKRFRHLKPEQYLLRQQDQFDSLFVVKKGALKSYRLTPEGEEIVTGFYMEGDVIGAGGLGNHKHFYSVVALEPSSLYEIPFAKLLQQSAMEPIVQQLMLKLLSQEMQADQSLRLIQLKQVKAAIASLILNIANRLTATQITLPMSRVDIANLLGVASETVCREFTRLQKQGLLSVNRKHIVINDLPQLQLAAGGDCY,not soluble
10,MKIVSIKIKNYRVFEDIKITNIPSFCVIIGANGTGKSTLFDVFGFLRDALKNNIRQALQIRGGFKEVVTRGKESEDIEIELKFRMEILATERLVTYILIIGQEGKKPVIKREILRYKRGEYGSPFHFLDFHNGQGYAIRNEESFESDEELEREEQKLESADILAIKGLGQFQRFKAANAIRSLIENWHVSDFHISDARGSKAALYAEHLSPTGDNIPIVAQYIYQEHPEIFAEILQRMKQRVPGISNVEAKEIEGGSLILKFQDQAFEDSFVDLYVSDGTIKMFAYLILLFDPKPHPLLCVEEPENQLYPTLLRELAEEFASYAHRGGQVFVSTHSPDFLNAVPLDSIFWLIKIQGVTKVEKAADHEVLRNLIAAGDLPGYLWNQGWFEGVAPLEHHHHHH,not soluble
11,MSLYVSKLFTSQQWRELKLISYVTENADAIGVKDKELSKALNISMLTLQTCLTNMQFMKEVGGITYKNGYITIWYHQHCGLQEVYQKALRHSQSFKLLETLFFRDFNSLEELAEELFVSLSTLKRLIKKTNAYLMHTFGITILTSPVQVSGDEHQIRLFYLKYFSEAYKISEWPFGEILNLKNCERLLSLMIKEVDVRVNFTLFQHLKILSSVNLIRYYKGHSAVYDNKKTSQRFSQLIQSSLEFQDLSRLFHLKFGLYLDETTIAEMFSNHVNDQLEIGYAFDSIKQDSPTGCRKVTNWVHLLDELEIRLNLSVTNKYEVAVILHNTTVLKEEDITANYLFFDYKKSYLNFYKQEHPHLYKAFVAGVEKLMRSEKEPISTELTNQLIYAFFITWENSFLKVNQKDEKIRLLVIERSFNSVGNFLKKYVGEFFSITNFNELDALTIDLEEIEKQYDVIVTDVMVGKSEELEIFFFHKMIPEAIIDKLNAFLTSALQQEGHHHHHH,soluble
12,KMERKNVWHHRKKEEIEAFSKEYMEFMSKAKTERMTVKEIKRILDESGFVPLEDFAGDPMNMTVYAVNRGKAIAAFRVVDDLKRGLNLVVAHIDSPRLDFKPNPLIEDEQIALFKTHYYGGIKKYHWLSIPLEIHGVLFKNDGTEIEIHIGDKPEDPVFTIPDLLPHLDKEDAKISEKFKGENLMLIAGTIPLSGEEKEAVKTNVLKILNEMYGITEEDFVSGEIEVVPAFSPREVGMDRSLIGAYGQDDRICAYTALRALLSANPEKSIGVIFFDKEEIGSDGNTGAKARFYLKALRQILKMQGAKDSEFVLDEVLENTSVISGDVCAAVNPPYKDVHDLHNAPKLGYGVALVKYTGARGKYSTNDAHAEFVARVRKVLNEQGVIWQVATLGKVDQGGGGTIAKFFAERGSDVIDMGPALLGMHSPFEISSKADLFETYVAYRSLMEKL,soluble
13,MPKKEKMAKTPLSDEKQLLLFQQKLLAEEEMAKKKERLLSQFLKDKLAKEEHNSALNLNKINTQWRTVLREVKTRELHKDIEILSQTFERVVDCKDNVIKSLAKDLSEAEEQYAHALRSHLHNVDQLLALQRHRLSLLEESYNMELEALTKEFETERKTIIDQHEKEIHYLQDIFMAMEQNYIDSEYESKLEFQSMWNDLKNMNLEEKHFLRLHLENRVEDLWRKFQDVLKNYTDATEDRKAAFETLQVKDEKSSKEIEVQMKKIQKLQDAITISKGKIMIHSRESEDENRYIRNDKELVLVQLRKLKAQRTQARAASQKNLVRLTLESNATLKALRKIVDKGEKILKLAEICRKFETEEEKVLPFYSSVLTPKEQEGIQKNNLEELTEELTKVMVDYIGMENFWKRYNKVKLEQLSLQHRRAQLLDINGKLREMLKQYLDGISVSDEVLSQLNPLFIVNYQSNLLQPLSIRIAHPGDKQHPTT,soluble
14,MATPSLTDACVHCGFCLSDCPSYRVLGRETDSPRGRVYLMDSLQQGRIELSDTVVEHFDTCLGCLACTSACPSGVQYDQLIEEMRQRIAQEHRRPWPEAIWRKLLFAFLPLEHHHHHH,soluble
15,MSLAKEPLIRVLLIEDDPMVQEVNRMFVEKLSGFTIVGTTATGEEGMVKTRELQPDLILLDIFMPKQDGLSFIKQIREQYIDVDIIAVTAANDTKTIKTLLRYGVMDYLVKPFTFERLKAALTQYEEMFRKMQKEAELSQDSLDEMIKQKQAQANMDDLPKGLHAHTLQQVIERLEELDEPKSAEEIGRDVGLARVTVRRYLNYLESVGQVEMDLTYGSIGRPIQTYKLKEGHHHHHH,soluble
16,MGSDKIHHHHHHMLYPVKLLKDLVQIKTANPPGSEYESISFYLKDLFNDLGFQIQLIEIPEEYMDKYYIYSPSHKGNKRIIVIAKNSPNPILHFNFHYDVVPPGDGWLTNPFELKVVDNKAYGRGTSDMKGSIVSLYLALSRFNDLPIEIVFVPDEESGGIGTKYLTEEIRIAPSTAIFGEPSFPNVYIGHLGIVRGIIKIFGKQAHASNPKDGINAFLLASKLALKLQEKLGNEIVNLGGYTLNPTNNDGIVPGFFAFSYYRAIPPHDNRTPEFDKNVIDTTAREVGIEYNFEIKSFISGSVSNPDSSVAKAFKFCITSTLNVVPKELISNIRYDAVFYKNLDSINFGPGSLDQAHVPNEYVELDNIEKTIVIYECVMKRIYFNNYR,not soluble
17,MTASSPNRARTSLAAYASAGPVSLPAGSTRTVASGTSSRTRSAYASRVTASRSSAKAARSAVRRSRLRSSSPSASSCLGRWLRLAGYSRVPVPPASRTAATVCVTARSPGGWSACRRVRRRGPNACLRGASDRVHPGCGDLKGVGSKHRYVSHRNTRGDGYTTMSDLSDTAQEVHDDLSEHVDATVDDVEARLEKLVSEYKVPVDEARRSVENHYLDEAGLDRDDLAGGGGNDTVEVEDVDEAEQWVDITAKVVELWEPRSDSVGQVGLLGDPTGTIKFTKWAKSDLETLDEGQVYRLGNVVTDEYQGRYSVKLNKTTSIEAVDEEFEVGDNEDEVAGALVDVQSGSGLIKRCPEEDCTRVLQNGRCNEHGEGDGEFDLRIKGVLDDGTDVHEVIFDEEATEALTGIGLEEAKQMAKDALDTTVVADEMRATILGKYYRVTGPTFGRYVLANDTELLTTRPDTESVLIRARSILEHHHHHH,not soluble
